Measurements published in IntAct's records for PubMed 25416956.

B1: EF-hand domain-containing protein 1 (Homo sapiens), Q5JVL4 (parent)
chain: MVSNPVHGLPFLPGTSFKDSTKTAFHRSQTLSYRNGYAIVRRPTVGIGGDRLQFNQLSQAELDELASKAPVLTYGQPKQAPPADFIPAHVAFDKKVLKFDAYFQEDVPMSTEEQYRIRQVNIYYYLEDDSMSVIEPVVENSGILQGKLIKRQRLAKNDRGDHYHWKDLNRGINITIYGKTFRVVDCDQFTQVFLESQGIELNPPEKMALDPYTELRKQPLRKYVTPSDFDQLKQFLTFDKQVLRFYAIWDDTDSMYGECRTYIIHYYLMDDTVEIREVHERNDGRDPFPLLMNRQRVPKVLVENAKNFPQCVLEISDQEVLEWYTAKDFIVGKSLTILGRTFFIYDCDPFTRRYYKEKFGITDLPRIDVSKREPPPVKQELPPYNGFGLVEDSAQNCFALIPKAPKKDVIKMLVNDNKVLRYLAVLESPIPEDKDRRFVFSYFLATDMISIFEPPVRNSGIIGGKYLGRTKVVKPYSTVDNPVYYGPSDFFIGAVIEVFGHRFIILDTDEYVLKYMESNAAQYSPEALASIQNHVRKREAPAPEAESKQTEKDPGVQELEALIDTIQKQLKDHSCKDNIREAFQIYDKEASGYVDRDMFFKICESLNVPVDDSLVKELIRMCSHGEGKINYYNFVRAFSN
partner: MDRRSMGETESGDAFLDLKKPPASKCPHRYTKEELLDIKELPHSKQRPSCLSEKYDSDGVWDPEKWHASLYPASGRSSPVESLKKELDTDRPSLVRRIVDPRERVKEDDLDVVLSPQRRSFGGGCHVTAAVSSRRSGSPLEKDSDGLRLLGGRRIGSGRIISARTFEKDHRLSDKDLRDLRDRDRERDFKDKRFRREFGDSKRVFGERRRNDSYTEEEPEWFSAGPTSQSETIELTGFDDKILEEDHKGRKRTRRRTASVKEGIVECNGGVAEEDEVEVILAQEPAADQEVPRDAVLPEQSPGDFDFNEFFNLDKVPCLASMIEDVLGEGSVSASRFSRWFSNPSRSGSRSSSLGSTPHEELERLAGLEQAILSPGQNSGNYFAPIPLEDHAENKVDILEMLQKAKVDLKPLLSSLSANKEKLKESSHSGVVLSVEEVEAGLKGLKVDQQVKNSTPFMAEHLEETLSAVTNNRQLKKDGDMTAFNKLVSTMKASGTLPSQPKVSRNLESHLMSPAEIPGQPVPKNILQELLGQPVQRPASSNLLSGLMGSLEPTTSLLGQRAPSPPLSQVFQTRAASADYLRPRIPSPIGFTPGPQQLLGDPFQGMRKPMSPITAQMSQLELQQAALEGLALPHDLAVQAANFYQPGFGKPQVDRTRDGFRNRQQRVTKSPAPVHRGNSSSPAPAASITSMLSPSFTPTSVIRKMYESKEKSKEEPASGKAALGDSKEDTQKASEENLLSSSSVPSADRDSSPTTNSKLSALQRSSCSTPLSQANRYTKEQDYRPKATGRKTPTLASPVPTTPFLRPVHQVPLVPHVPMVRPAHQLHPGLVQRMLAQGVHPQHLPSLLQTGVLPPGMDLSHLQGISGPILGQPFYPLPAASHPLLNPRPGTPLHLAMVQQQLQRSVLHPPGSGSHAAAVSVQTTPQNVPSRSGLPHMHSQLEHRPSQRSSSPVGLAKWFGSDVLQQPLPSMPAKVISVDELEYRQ
B2: X-linked retinitis pigmentosa GTPase regulator (Homo sapiens), Q92834 (parent)
chain: MREPEELMPDSGAVFTFGKSKFAENNPGKFWFKNDVPVHLSCGDEHSAVVTGNNKLYMFGSNNWGQLGLGSKSAISKPTCVKALKPEKVKLAACGRNHTLVSTEGGNVYATGGNNEGQLGLGDTEERNTFHVISFFTSEHKIKQLSAGSNTSAALTEDGRLFMWGDNSEGQIGLKNVSNVCVPQQVTIGKPVSWISCGYYHSAFVTTDGELYVFGEPENGKLGLPNQLLGNHRTPQLVSEIPEKVIQVACGGEHTVVLTENAVYTFGLGQFGQLGLGTFLFETSEPKVIENIRDQTISYISCGENHTALITDIGLMYTFGDGRHGKLGLGLENFTNHFIPTLCSNFLRFIVKLVACGGCHMVVFAAPHRGVAKEIEFDEINDTCLSVATFLPYSSLTSGNVLQRTLSARMRRRERERSPDSFSMRRTLPPIEGTLGLSACFLPNSVFPRCSERNLQESVLSEQDLMQPEEPDYLLDEMTKEAEIDNSSTVESLGETTDILNMTHIMSLNSNEKSLKLSPVQKQKKQQTIGELTQDTALTENDDSDEYEEMSEMKEGKACKQHVSQGIFMTQPATTIEAFSDEEVGNDTGQVGPQADTDGEGLQKEVYRHENNNGVDQLDAKEIEKESDGGHSQKESEAEEIDSEKETKLAEIAGMKDLREREKSTKKMSPFFGNLPDRGMNTESEENKDFVKKRESCKQDVIFDSERESVEKPDSYMEGASESQQGIADGFQQPEAIEFSSGEKEDDEVETDQNIRYGRKLIEQGNEKETKPIISKSMAKYDFKCDRLSEIPEEKEGAEDSKGNGIEEQEVEANEENVKVHGGRKEKTEILSDDLTDKAEDHEFSKTEELKLEDVDEEINAENVESKKKTVGDDESVPTGYHSKTEGAERTNDDSSAETIEKKEKANLEERAICEYNENPKGYMLDDADSSSLEILENSETTPSKDMKKTKKIFLFKRVPSINQKIVKNNNEPLPEIKSIGDQIILKSDNKDADQNHMSQNHQNIPPTNTERRSKSCTIL
partner: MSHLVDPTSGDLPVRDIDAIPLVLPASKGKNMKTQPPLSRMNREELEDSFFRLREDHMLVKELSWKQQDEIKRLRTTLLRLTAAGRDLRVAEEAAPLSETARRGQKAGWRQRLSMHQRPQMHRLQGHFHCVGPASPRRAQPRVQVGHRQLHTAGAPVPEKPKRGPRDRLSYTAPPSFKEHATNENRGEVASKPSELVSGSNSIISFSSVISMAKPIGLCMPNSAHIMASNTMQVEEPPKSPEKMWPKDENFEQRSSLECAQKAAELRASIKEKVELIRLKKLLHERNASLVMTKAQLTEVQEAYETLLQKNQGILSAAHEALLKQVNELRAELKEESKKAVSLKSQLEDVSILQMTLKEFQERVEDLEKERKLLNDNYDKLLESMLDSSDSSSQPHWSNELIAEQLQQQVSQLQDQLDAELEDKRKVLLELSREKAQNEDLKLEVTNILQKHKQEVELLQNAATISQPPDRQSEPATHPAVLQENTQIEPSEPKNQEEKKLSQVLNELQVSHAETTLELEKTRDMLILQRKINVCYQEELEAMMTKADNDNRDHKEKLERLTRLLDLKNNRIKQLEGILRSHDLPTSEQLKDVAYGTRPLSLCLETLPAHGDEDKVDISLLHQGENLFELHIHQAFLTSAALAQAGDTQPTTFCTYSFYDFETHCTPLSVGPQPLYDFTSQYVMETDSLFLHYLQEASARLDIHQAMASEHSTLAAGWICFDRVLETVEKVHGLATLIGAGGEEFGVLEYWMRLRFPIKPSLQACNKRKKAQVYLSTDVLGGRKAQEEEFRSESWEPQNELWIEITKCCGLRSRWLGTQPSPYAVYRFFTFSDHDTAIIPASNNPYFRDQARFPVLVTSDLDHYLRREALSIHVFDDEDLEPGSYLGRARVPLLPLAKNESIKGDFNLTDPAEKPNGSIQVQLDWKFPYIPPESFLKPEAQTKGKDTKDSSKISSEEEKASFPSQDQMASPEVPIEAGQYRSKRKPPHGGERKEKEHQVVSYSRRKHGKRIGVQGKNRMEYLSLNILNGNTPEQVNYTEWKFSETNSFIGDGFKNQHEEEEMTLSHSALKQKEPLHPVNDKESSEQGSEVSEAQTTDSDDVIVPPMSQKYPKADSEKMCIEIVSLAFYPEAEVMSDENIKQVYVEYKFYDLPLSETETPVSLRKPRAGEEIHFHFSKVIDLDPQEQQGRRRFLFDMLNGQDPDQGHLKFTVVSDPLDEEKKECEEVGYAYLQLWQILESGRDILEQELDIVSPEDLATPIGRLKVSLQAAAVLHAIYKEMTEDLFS
B3: EF-hand domain-containing protein 1 (Homo sapiens), Q5JVL4 (parent)
chain: B1 chain
partner: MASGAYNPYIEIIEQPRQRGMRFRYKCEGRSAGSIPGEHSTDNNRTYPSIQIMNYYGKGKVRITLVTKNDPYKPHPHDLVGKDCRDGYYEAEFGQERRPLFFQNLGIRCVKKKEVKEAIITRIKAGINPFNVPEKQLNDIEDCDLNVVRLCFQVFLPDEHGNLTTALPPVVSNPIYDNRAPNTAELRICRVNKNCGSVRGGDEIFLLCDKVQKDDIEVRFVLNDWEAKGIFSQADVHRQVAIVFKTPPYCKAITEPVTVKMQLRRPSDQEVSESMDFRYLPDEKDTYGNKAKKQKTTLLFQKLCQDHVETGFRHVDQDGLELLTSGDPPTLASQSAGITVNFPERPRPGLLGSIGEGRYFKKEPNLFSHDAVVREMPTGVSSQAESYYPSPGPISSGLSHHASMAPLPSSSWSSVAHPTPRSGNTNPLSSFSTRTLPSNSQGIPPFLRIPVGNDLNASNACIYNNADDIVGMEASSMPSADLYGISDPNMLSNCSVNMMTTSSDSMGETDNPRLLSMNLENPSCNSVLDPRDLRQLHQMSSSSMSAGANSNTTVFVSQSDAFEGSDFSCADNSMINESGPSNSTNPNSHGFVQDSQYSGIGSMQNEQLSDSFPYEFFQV

Variants of: B1
Conditions: with 4et_human EIF4ENIF1, Q9NRA8

effect of a mutation on the interaction	Variant
disrupting interaction	P77T

Variants of: B1
Conditions: with 4et_human EIF4ENIF1, Q9NRA8
Remark: another data set of the same source

effect of a mutation on the interaction	Variant
disrupting interaction	A394S

Variants of: B1
Conditions: with 4et_human EIF4ENIF1, Q9NRA8
Remark: another data set of the same source

effect of a mutation on the interaction	Variant
disrupting interaction	T508R

Variants of: B1
Conditions: with 4et_human EIF4ENIF1, Q9NRA8
Remark: another data set of the same source

effect of a mutation on the interaction	Variant
disrupting interaction	R221H

Variants of: B2
Conditions: with rpgr1_human RPGRIP1, Q96KN7

effect of a mutation on the interaction	Variant
disrupting interaction	H98Q

Variants of: B2
Conditions: with rpgr1_human RPGRIP1, Q96KN7
Remark: another data set of the same source

effect of a mutation on the interaction	Variant
disrupting interaction	T255I

Variants of: B3
Conditions: with rel_human REL

effect of a mutation on the interaction	Variant
disrupting interaction	P77T

Variants of: B3
Conditions: with rel_human REL
Remark: another data set of the same source

effect of a mutation on the interaction	Variant
disrupting interaction	R221H

Variants of: B3
Conditions: with rel_human REL
Remark: another data set of the same source

effect of a mutation on the interaction	Variant
disrupting interaction	T508R
